Columns and labels:
[1] = target: a native host protein; experiment: Kd determination, method not stated; reference wild type PmSLP-1 (SEQ ID NO 2)
[2] = target: a native host protein; experiment: Kd determination, method not stated

Substance	factor by which the Kd exceeds the Kd of the native non-modified PmSLP [1] [fold]	Kd [2] [nM]
modified PmSLP-1 having SEQ. ID NO: 65 (V214D mutation)	> 500	< 2000
modified PmSLP-1 having SEQ. ID NO: 67 (E240A mutation)	> 500	< 2000
wild type PmSLP-1 protein (SEQ. ID NO: 2)		30
